The values below come from publication PMC4543619 (British Journal of Pharmacology, 2015).

Where two headings read alike, the source gives them in different places.

Experiment [1] deals with T1, native/full length GTP cyclohydrolase 1 (F‐GCH1), His6-tagged (human, UniProt P30793 1-250).
T1 sequence (looked up): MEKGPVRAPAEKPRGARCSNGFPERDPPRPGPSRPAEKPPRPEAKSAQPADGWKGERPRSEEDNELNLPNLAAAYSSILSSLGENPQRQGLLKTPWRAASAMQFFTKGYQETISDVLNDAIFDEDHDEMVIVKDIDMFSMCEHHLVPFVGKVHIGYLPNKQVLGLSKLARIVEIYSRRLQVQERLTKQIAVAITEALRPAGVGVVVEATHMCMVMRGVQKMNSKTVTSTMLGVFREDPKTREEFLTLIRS
Kind of experiment: SPR. On the technique in general: Surface plasmon resonance follows binding to a sensor surface in real time, without labels.

In experiment [2] the target is T1, native/full length GTP cyclohydrolase 1 …. Kind of experiment: SPR. The source holds these as a separate data set.

B1: GCH1 feedback regulatory protein (GFRP), His6 tag cleaved (natural protein)
chain: not shown
What is called Kd is the constant that tells how readily two partners part at equilibrium. As to B1, the results for the Kd in experiment [1] and in experiment [2] were 8 nM and 1 nM, respectively.
